This note sets out measurements from patent US20260295010 (published 2026).

What is called Kd is the concentration at which binding is half-saturated.

To fix the notation:
B1: IL-12p70 D162A (protein)
chain 1: MIWELKKDVYVVELDWYPDAPGEMVVLTCDTPEEDGITWTLDQSSEVLGSGKTLTIQVKEFGDAGQYTCHKGGEVLSHSLLLLHKKEDGIWSTDILKDQKEPKNKTFLRCEAKNYSGRFTCWWLTTISTDLTFSVKSSRGSSDPQGVTCGAATLSAERVRGANKEYEYSVECQEDSACPAAEESLPIEVMVDAVHKLKYENYTSSFFIRDIIKPDPPKNLQLKPLKNSRQVEVSWEYPDTWSTPHSYFSLTFSVQVQGKSKREKKDRVFTDKTSATVICRKNASISVRAQDRYYSSSWSEWASVPCSGGGSHHHHHH
chain 2: MRNLPVATPDPGMFPSLHHSQNLLRAVSNMLQKARQTLEFYPCTSEEIDHEDITKDKTSTVEACLPLELTKNESCLNSRETSFITNGSSLASRKTSFMMALCLSSIYEDLKMYQVEFKTMNAKLLMDPKRQIFLDQNMLAVIDELMQALNFNSETVPQKSSLEEPDFYKTKIKLCILLHAFRIRAVTIDRVMSYLNAS
B2: IL-12p70 I278Y (protein)
chain 1: MIWELKKDVYVVELDWYPDAPGEMVVLTCDTPEEDGITWTLDQSSEVLGSGKTLTIQVKEFGDAGQYTCHKGGEVLSHSLLLLHKKEDGIWSTDILKDQKEPKNKTFLRCEAKNYSGRFTCWWLTTISTDLTFSVKSSRGSSDPQGVTCGAATLSAERVRGDNKEYEYSVECQEDSACPAAEESLPIEVMVDAVHKLKYENYTSSFFIRDIIKPDPPKNLQLKPLKNSRQVEVSWEYPDTWSTPHSYFSLTFSVQVQGKSKREKKDRVFTDKTSATVYCRKNASISVRAQDRYYSSSWSEWASVPCSGGGSHHHHHH
chain 2: MRNLPVATPDPGMFPSLHHSQNLLRAVSNMLQKARQTLEFYPCTSEEIDHEDITKDKTSTVEACLPLELTKNESCLNSRETSFITNGSSLASRKTSFMMALCLSSIYEDLKMYQVEFKTMNAKLLMDPKRQIFLDQNMLAVIDELMQALNFNSETVPQKSSLEEPDFYKTKIKLCILLHAFRIRAVTIDRVMSYLNAS
B3: IL-12p70 Q43A (protein)
chain 1: MIWELKKDVYVVELDWYPDAPGEMVVLTCDTPEEDGITWTLDASSEVLGSGKTLTIQVKEFGDAGQYTCHKGGEVLSHSLLLLHKKEDGIWSTDILKDQKEPKNKTFLRCEAKNYSGRFTCWWLTTISTDLTFSVKSSRGSSDPQGVTCGAATLSAERVRGDNKEYEYSVECQEDSACPAAEESLPIEVMVDAVHKLKYENYTSSFFIRDIIKPDPPKNLQLKPLKNSRQVEVSWEYPDTWSTPHSYFSLTFSVQVQGKSKREKKDRVFTDKTSATVICRKNASISVRAQDRYYSSSWSEWASVPCSGGGSHHHHHH
chain 2: MRNLPVATPDPGMFPSLHHSQNLLRAVSNMLQKARQTLEFYPCTSEEIDHEDITKDKTSTVEACLPLELTKNESCLNSRETSFITNGSSLASRKTSFMMALCLSSIYEDLKMYQVEFKTMNAKLLMDPKRQIFLDQNMLAVIDELMQALNFNSETVPQKSSLEEPDFYKTKIKLCILLHAFRIRAVTIDRVMSYLNAS
B4: IL-12p70 E87A (protein)
chain 1: MIWELKKDVYVVELDWYPDAPGEMVVLTCDTPEEDGITWTLDQSSEVLGSGKTLTIQVKEFGDAGQYTCHKGGEVLSHSLLLLHKKADGIWSTDILKDQKEPKNKTFLRCEAKNYSGRFTCWWLTTISTDLTFSVKSSRGSSDPQGVTCGAATLSAERVRGDNKEYEYSVECQEDSACPAAEESLPIEVMVDAVHKLKYENYTSSFFIRDIIKPDPPKNLQLKPLKNSRQVEVSWEYPDTWSTPHSYFSLTFSVQVQGKSKREKKDRVFTDKTSATVICRKNASISVRAQDRYYSSSWSEWASVPCSGGGSHHHHHH
chain 2: MRNLPVATPDPGMFPSLHHSQNLLRAVSNMLQKARQTLEFYPCTSEEIDHEDITKDKTSTVEACLPLELTKNESCLNSRETSFITNGSSLASRKTSFMMALCLSSIYEDLKMYQVEFKTMNAKLLMDPKRQIFLDQNMLAVIDELMQALNFNSETVPQKSSLEEPDFYKTKIKLCILLHAFRIRAVTIDRVMSYLNAS
B5: IL-12p70 S44A (protein)
chain 1: MIWELKKDVYVVELDWYPDAPGEMVVLTCDTPEEDGITWTLDQASEVLGSGKTLTIQVKEFGDAGQYTCHKGGEVLSHSLLLLHKKEDGIWSTDILKDQKEPKNKTFLRCEAKNYSGRFTCWWLTTISTDLTFSVKSSRGSSDPQGVTCGAATLSAERVRGDNKEYEYSVECQEDSACPAAEESLPIEVMVDAVHKLKYENYTSSFFIRDIIKPDPPKNLQLKPLKNSRQVEVSWEYPDTWSTPHSYFSLTFSVQVQGKSKREKKDRVFTDKTSATVICRKNASISVRAQDRYYSSSWSEWASVPCSGGGSHHHHHH
chain 2: MRNLPVATPDPGMFPSLHHSQNLLRAVSNMLQKARQTLEFYPCTSEEIDHEDITKDKTSTVEACLPLELTKNESCLNSRETSFITNGSSLASRKTSFMMALCLSSIYEDLKMYQVEFKTMNAKLLMDPKRQIFLDQNMLAVIDELMQALNFNSETVPQKSSLEEPDFYKTKIKLCILLHAFRIRAVTIDRVMSYLNAS
B6: IL-12p70 S45A (protein)
chain 1: MIWELKKDVYVVELDWYPDAPGEMVVLTCDTPEEDGITWTLDQSAEVLGSGKTLTIQVKEFGDAGQYTCHKGGEVLSHSLLLLHKKEDGIWSTDILKDQKEPKNKTFLRCEAKNYSGRFTCWWLTTISTDLTFSVKSSRGSSDPQGVTCGAATLSAERVRGDNKEYEYSVECQEDSACPAAEESLPIEVMVDAVHKLKYENYTSSFFIRDIIKPDPPKNLQLKPLKNSRQVEVSWEYPDTWSTPHSYFSLTFSVQVQGKSKREKKDRVFTDKTSATVICRKNASISVRAQDRYYSSSWSEWASVPCSGGGSHHHHHH
chain 2: MRNLPVATPDPGMFPSLHHSQNLLRAVSNMLQKARQTLEFYPCTSEEIDHEDITKDKTSTVEACLPLELTKNESCLNSRETSFITNGSSLASRKTSFMMALCLSSIYEDLKMYQVEFKTMNAKLLMDPKRQIFLDQNMLAVIDELMQALNFNSETVPQKSSLEEPDFYKTKIKLCILLHAFRIRAVTIDRVMSYLNAS
B7: IL-12p70 E46A (protein)
chain 1: MIWELKKDVYVVELDWYPDAPGEMVVLTCDTPEEDGITWTLDQSSAVLGSGKTLTIQVKEFGDAGQYTCHKGGEVLSHSLLLLHKKEDGIWSTDILKDQKEPKNKTFLRCEAKNYSGRFTCWWLTTISTDLTFSVKSSRGSSDPQGVTCGAATLSAERVRGDNKEYEYSVECQEDSACPAAEESLPIEVMVDAVHKLKYENYTSSFFIRDIIKPDPPKNLQLKPLKNSRQVEVSWEYPDTWSTPHSYFSLTFSVQVQGKSKREKKDRVFTDKTSATVICRKNASISVRAQDRYYSSSWSEWASVPCSGGGSHHHHHH
chain 2: MRNLPVATPDPGMFPSLHHSQNLLRAVSNMLQKARQTLEFYPCTSEEIDHEDITKDKTSTVEACLPLELTKNESCLNSRETSFITNGSSLASRKTSFMMALCLSSIYEDLKMYQVEFKTMNAKLLMDPKRQIFLDQNMLAVIDELMQALNFNSETVPQKSSLEEPDFYKTKIKLCILLHAFRIRAVTIDRVMSYLNAS
B8: IL-12p70 D42A (protein)
chain 1: MIWELKKDVYVVELDWYPDAPGEMVVLTCDTPEEDGITWTLAQSSEVLGSGKTLTIQVKEFGDAGQYTCHKGGEVLSHSLLLLHKKEDGIWSTDILKDQKEPKNKTFLRCEAKNYSGRFTCWWLTTISTDLTFSVKSSRGSSDPQGVTCGAATLSAERVRGDNKEYEYSVECQEDSACPAAEESLPIEVMVDAVHKLKYENYTSSFFIRDIIKPDPPKNLQLKPLKNSRQVEVSWEYPDTWSTPHSYFSLTFSVQVQGKSKREKKDRVFTDKTSATVICRKNASISVRAQDRYYSSSWSEWASVPCSGGGSHHHHHH
chain 2: MRNLPVATPDPGMFPSLHHSQNLLRAVSNMLQKARQTLEFYPCTSEEIDHEDITKDKTSTVEACLPLELTKNESCLNSRETSFITNGSSLASRKTSFMMALCLSSIYEDLKMYQVEFKTMNAKLLMDPKRQIFLDQNMLAVIDELMQALNFNSETVPQKSSLEEPDFYKTKIKLCILLHAFRIRAVTIDRVMSYLNAS
B9: IL-12p70 E87K (protein)
chain 1: MIWELKKDVYVVELDWYPDAPGEMVVLTCDTPEEDGITWTLDQSSEVLGSGKTLTIQVKEFGDAGQYTCHKGGEVLSHSLLLLHKKKDGIWSTDILKDQKEPKNKTFLRCEAKNYSGRFTCWWLTTISTDLTFSVKSSRGSSDPQGVTCGAATLSAERVRGDNKEYEYSVECQEDSACPAAEESLPIEVMVDAVHKLKYENYTSSFFIRDIIKPDPPKNLQLKPLKNSRQVEVSWEYPDTWSTPHSYFSLTFSVQVQGKSKREKKDRVFTDKTSATVICRKNASISVRAQDRYYSSSWSEWASVPCSGGGSHHHHHH
chain 2: MRNLPVATPDPGMFPSLHHSQNLLRAVSNMLQKARQTLEFYPCTSEEIDHEDITKDKTSTVEACLPLELTKNESCLNSRETSFITNGSSLASRKTSFMMALCLSSIYEDLKMYQVEFKTMNAKLLMDPKRQIFLDQNMLAVIDELMQALNFNSETVPQKSSLEEPDFYKTKIKLCILLHAFRIRAVTIDRVMSYLNAS
B10: IL-12p70 D162K (protein)
chain 1: MIWELKKDVYVVELDWYPDAPGEMVVLTCDTPEEDGITWTLDQSSEVLGSGKTLTIQVKEFGDAGQYTCHKGGEVLSHSLLLLHKKEDGIWSTDILKDQKEPKNKTFLRCEAKNYSGRFTCWWLTTISTDLTFSVKSSRGSSDPQGVTCGAATLSAERVRGKNKEYEYSVECQEDSACPAAEESLPIEVMVDAVHKLKYENYTSSFFIRDIIKPDPPKNLQLKPLKNSRQVEVSWEYPDTWSTPHSYFSLTFSVQVQGKSKREKKDRVFTDKTSATVICRKNASISVRAQDRYYSSSWSEWASVPCSGGGSHHHHHH
chain 2: MRNLPVATPDPGMFPSLHHSQNLLRAVSNMLQKARQTLEFYPCTSEEIDHEDITKDKTSTVEACLPLELTKNESCLNSRETSFITNGSSLASRKTSFMMALCLSSIYEDLKMYQVEFKTMNAKLLMDPKRQIFLDQNMLAVIDELMQALNFNSETVPQKSSLEEPDFYKTKIKLCILLHAFRIRAVTIDRVMSYLNAS
B11: IL-12p70 Y17A (protein)
chain 1: MIWELKKDVYVVELDWAPDAPGEMVVLTCDTPEEDGITWTLDQSSEVLGSGKTLTIQVKEFGDAGQYTCHKGGEVLSHSLLLLHKKEDGIWSTDILKDQKEPKNKTFLRCEAKNYSGRFTCWWLTTISTDLTFSVKSSRGSSDPQGVTCGAATLSAERVRGDNKEYEYSVECQEDSACPAAEESLPIEVMVDAVHKLKYENYTSSFFIRDIIKPDPPKNLQLKPLKNSRQVEVSWEYPDTWSTPHSYFSLTFSVQVQGKSKREKKDRVFTDKTSATVICRKNASISVRAQDRYYSSSWSEWASVPCSGGGSHHHHHH
chain 2: MRNLPVATPDPGMFPSLHHSQNLLRAVSNMLQKARQTLEFYPCTSEEIDHEDITKDKTSTVEACLPLELTKNESCLNSRETSFITNGSSLASRKTSFMMALCLSSIYEDLKMYQVEFKTMNAKLLMDPKRQIFLDQNMLAVIDELMQALNFNSETVPQKSSLEEPDFYKTKIKLCILLHAFRIRAVTIDRVMSYLNAS

This test concerns the target IL-12RB1-hFc (human, UniProt P42701). Briefly: SPR, 25C.
B1 registered a Kd of 0.05 nM.
The figure for B2 is 0.04 nM; for B3 it is 0.03 nM.
The result for B4 reads 0.04 nM; that for B5, 0.05 nM; that for B6, 0.04 nM.
Molecule B7 came in with a Kd of 0.06 nM.
Consider B8, for which the Kd came to 0.07 nM.
The result for B9 reads 0.11 nM.
The figure for B10 is 0.07 nM; for B11 it is 0.07 nM.
